Our source for the protein stability index values is the supplement of paper PMC10567573.

B1: FAM164C (parent)
chain: YPHCTGISQQDPESDSQGQGNGLF
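Further: lentivirally expressed fusions sorted by FACS into six bins by GFP to DsRed ratio, PSI derived from sequencing read proportions per bin multiplied by bin number.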

The variants in the data set derive from B1. Briefly: protein stability index of a GFP-peptide fusion (GPS, HEK-293T) (PSI 1-6); higher = more stable. As to conditions: c terminus: a fixed tail appended.
Turning to YPHCTGISQQDPESDWQGQGNGLF, the protein stability index was found to be 2.76.
In the case of YPHCTGISQQDPESDKQGQGNGLF, the protein stability index stood at 3.61.
Regarding YPHCTGISQQDPESDDQGQGNGLF, the protein stability index is 4.24.
As for YPHCTGISQQDPESDHQGQGNGLF, the protein stability index turned out to be 3.78.
For the variant YPHCTGISQQDPESDGQGQGNGLF, the protein stability index turned out to be 3.71.
With YPHCTGISQQDPESDVQGQGNGLF the figure was 3.69; with YPHCTGISQQDPESDFQGQGNGLF, 3.13.
For the variant YPHCTGISQQDPESDNQGQGNGLF, the protein stability index worked out at 4.18.
With YPHCTGISQQDPESDRQGQGNGLF the figure was 3.31; with YPHCTGISQQDPESDYQGQGNGLF, 3.44; with YPHCTGISQQDPESDEQGQGNGLF, 4.16.
Turning to YPHCTGISQQDPESDCQGQGNGLF, the protein stability index turned out to be 3.35.
With YPHCTGISQQDPESDTQGQGNGLF the figure was 3.73; with YPHCTGISQQDPESDPQGQGNGLF, 3.92; with YPHCTGISQQDPESDIQGQGNGLF, 3.1.
With YPHCTGISQQDPESDLQGQGNGLF the figure was 2.74; with YPHCTGISQQDPESDQQGQGNGLF, 3.8.
Under YPHCTGISQQDPESDAQGQGNGLF stands 3.71; under YPHCTGISQQDPESDSSGQGNGLF, 3.79.
Take YPHCTGISQQDPESDSRGQGNGLF: the protein stability index worked out at 3.71.
Under YPHCTGISQQDPESDSEGQGNGLF stands 4.4; under YPHCTGISQQDPESDSKGQGNGLF, 3.51.
Under YPHCTGISQQDPESDSHGQGNGLF stands 3.36.
For YPHCTGISQQDPESDSGGQGNGLF, the protein stability index was 3.74.
Under YPHCTGISQQDPESDSIGQGNGLF stands 3.42; under YPHCTGISQQDPESDSTGQGNGLF, 3.64.
On to YPHCTGISQQDPESDSWGQGNGLF, for which the protein stability index came out at 2.97.
YPHCTGISQQDPESDSAGQGNGLF: the protein stability index was determined as 3.88.
As for YPHCTGISQQDPESDSMGQGNGLF, the protein stability index is 3.8.
As for YPHCTGISQQDPESDSPGQGNGLF, the protein stability index came to 3.6.
Consider YPHCTGISQQDPESDSCGQGNGLF, for which the protein stability index is 3.39.
Under YPHCTGISQQDPESDSDGQGNGLF stands 3.26; under YPHCTGISQQDPESDSYGQGNGLF, 3.02.
With YPHCTGISQQDPESDSFGQGNGLF, the protein stability index worked out at 2.81.
For the variant YPHCTGISQQDPESDSNGQGNGLF, the protein stability index stood at 4.14.
Take YPHCTGISQQDPESDSVGQGNGLF: the protein stability index was determined as 3.4.
With YPHCTGISQQDPESDSLGQGNGLF the figure was 2.96.
On to YPHCTGISQQDKESDSQGQGNGLF, for which the protein stability index was 3.57.
With YPHCTGISQQDVESDSQGQGNGLF the figure was 3.96.
Under YPHCTGISQQDAESDSQGQGNGLF stands 3.95; under YPHCTGISQQDMESDSQGQGNGLF, 3.6.
On to YPHCTGISQQDHESDSQGQGNGLF, for which the protein stability index stood at 3.73.
Turning to YPHCTGISQQDCESDSQGQGNGLF, the protein stability index stood at 3.77.
For YPHCTGISQQDLESDSQGQGNGLF, the protein stability index is 3.65.
With YPHCTGISQQDFESDSQGQGNGLF the figure was 3.56; with YPHCTGISQQDSESDSQGQGNGLF, 3.98; with YPHCTGISQQDTESDSQGQGNGLF, 3.74.
As for YPHCTGISQQDWESDSQGQGNGLF, the protein stability index came to 3.27.
With YPHCTGISQQDGESDSQGQGNGLF the figure was 3.45; with YPHCTGISQQDYESDSQGQGNGLF, 3.54; with YPHCTGISQQDDESDSQGQGNGLF, 3.91.
Under YPHCTGISQQDQESDSQGQGNGLF stands 3.71.
Under YPHCTGISQQDIESDSQGQGNGLF stands 3.51.
YPHCTGISQQDEESDSQGQGNGLF: the protein stability index was found to be 4.08.
Under YPHCTGISQQDRESDSQGQGNGLF stands 3.18; under YPHCTGISQQDNESDSQGQGNGLF, 3.48.
In the case of YPHCTGISQQDPESDSQNQGNGLF, the protein stability index is 3.58.
With YPHCTGISQQDPESDSQWQGNGLF, the protein stability index was found to be 2.62.
Under YPHCTGISQQDPESDSQIQGNGLF stands 3.32; under YPHCTGISQQDPESDSQVQGNGLF, 3.32.
Regarding YPHCTGISQQDPESDSQHQGNGLF, the protein stability index was found to be 3.74.
YPHCTGISQQDPESDSQCQGNGLF: the protein stability index amounted to 3.9.
In the case of YPHCTGISQQDPESDSQSQGNGLF, the protein stability index turned out to be 3.77.
Under YPHCTGISQQDPESDSQAQGNGLF stands 3.83; under YPHCTGISQQDPESDSQQQGNGLF, 3.72; under YPHCTGISQQDPESDSQMQGNGLF, 3.19.
As for YPHCTGISQQDPESDSQFQGNGLF, the protein stability index is 2.54.
Regarding YPHCTGISQQDPESDSQPQGNGLF, the protein stability index is 3.83.
Under YPHCTGISQQDPESDSQEQGNGLF stands 4.19.
Regarding YPHCTGISQQDPESDSQRQGNGLF, the protein stability index turned out to be 3.83.
With YPHCTGISQQDPESDSQTQGNGLF the figure was 3.41.
Under YPHCTGISQQDPESDSQLQGNGLF stands 3.42.
With YPHCTGISQQDPESDSQYQGNGLF the figure was 3; with YPHCTGISQQDPESDSQDQGNGLF, 3.67; with YPHCTGISQQDPESDSQKQGNGLF, 3.5.
Turning to YPHCTGISQQDPESDSQGDGNGLF, the protein stability index was found to be 4.1.
Regarding YPHCTGISQQDPESDSQGAGNGLF, the protein stability index came to 3.87.
Under YPHCTGISQQDPESDSQGLGNGLF stands 3.3; under YPHCTGISQQDPESDSQGTGNGLF, 3.81; under YPHCTGISQQDPESDSQGPGNGLF, 3.86.
With YPHCTGISQQDPESDSQGVGNGLF the figure was 3.52; with YPHCTGISQQDPESDSQGFGNGLF, 2.88; with YPHCTGISQQDPESDSQGGGNGLF, 4.21.
Under YPHCTGISQQDPESDSQGMGNGLF stands 3.22.
Take YPHCTGISQQDPESDSQGIGNGLF: the protein stability index came out at 3.26.
For the variant YPHCTGISQQDPESDSQGWGNGLF, the protein stability index amounted to 2.75.
Under YPHCTGISQQDPESDSQGCGNGLF stands 3.24.
For the variant YPHCTGISQQDPESDSQGKGNGLF, the protein stability index came to 3.85.
For YPHCTGISQQDPESDSQGEGNGLF, the protein stability index turned out to be 4.21.
On to YPHCTGISQQDPESDSQGYGNGLF, for which the protein stability index came to 3.36.
Under YPHCTGISQQDPESDSQGNGNGLF stands 3.66; under YPHCTGISQQDPESDSQGHGNGLF, 3.64.
With YPHCTGISQQDPESDSQGSGNGLF, the protein stability index came to 3.9.
With YPHCTGISQQDPESDSQGRGNGLF, the protein stability index amounted to 3.51.
